Tests used:
[1] = target: T1, human PD-L1 full-length protein on transiently transfected HEK293F cells (human, UniProt Q9NZQ7 19-290); assay: flow cytometry competition: 10 ug nanobody + 5 ug hPD-1-Fc-Biotin on HEK293F cells expressing human PD-L1, SA-PE
T1 construct: whole, on cells
Method: (1) 1×10⁶ HEK293F cells transiently transfected to express human PD-L1 full-length protein were collected and resuspended in 0.5% BSA-PBS buffer. And 10 μg of anti-PD-L1 nanobodies were added, and a positive control, a negative control and blank group (PBS) were set up. All samples were incubated with 5 μg of hPD-1-Fc-Biotin for 20 minutes at 4° C.
(2) The cells were washed twice by PBS and incubated with SA-PE from eBioscience for 20 minutes at 4° C. Cells were washed again with PBS twice and were detected by flow cytometry.

[2] = target: T2, PD-L1 on HCC827 cells (high PD-L1 expression) and A549 cells (low PD-L1 expression) (UniProt Q9NZQ7 19-290, limits assumed); assay: flow cytometry on HCC827 cells (high PD-L1 expression), anti-HA Alexa Fluor 488
T2 construct: whole, on cells; HCC827 and A549 are known human lung cancer lines

[3] = target: T2, PD-L1 on HCC827 cells (high PD-L1 …); assay: flow cytometry on A549 cells (low PD-L1 expression), anti-HA Alexa Fluor 488
[4] = target: T3, PD-L1 (coated on the ELISA plate) (UniProt Q9NZQ7 19-238, limits assumed); assay: ELISA with gradient dilution of nanobody on coated PD-L1
T3 construct: also called B7-H1; CD274
Method: (1) The PD-L1 was coated on the plate, and IgG and NaHCO₃ (100 mM, pH8.2) were used as blank controls. All were incubated overnight at 4° C.
(3) The purified nanobodies were diluted, and reacted with coated PD-L1, IgG and NaHCO₃ at room temperature for 1 hour.

T3 sequence (Q9NZQ7 19-238 limits assumed): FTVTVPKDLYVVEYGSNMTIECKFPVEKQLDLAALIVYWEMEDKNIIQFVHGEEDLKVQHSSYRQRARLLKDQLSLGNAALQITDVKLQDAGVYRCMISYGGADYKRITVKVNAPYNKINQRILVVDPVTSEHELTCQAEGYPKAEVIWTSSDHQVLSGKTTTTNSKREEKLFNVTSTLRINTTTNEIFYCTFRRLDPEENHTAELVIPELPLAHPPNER
T2 sequence (Q9NZQ7 19-290 limits assumed): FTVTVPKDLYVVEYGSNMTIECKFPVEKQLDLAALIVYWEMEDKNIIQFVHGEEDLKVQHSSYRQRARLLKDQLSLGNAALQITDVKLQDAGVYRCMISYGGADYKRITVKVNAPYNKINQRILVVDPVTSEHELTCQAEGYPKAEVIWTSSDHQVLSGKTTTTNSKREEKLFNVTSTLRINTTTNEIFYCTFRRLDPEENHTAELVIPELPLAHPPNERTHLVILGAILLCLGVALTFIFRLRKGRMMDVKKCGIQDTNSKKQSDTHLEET
T1 sequence (Q9NZQ7 19-290): as the sequence (Q9NZQ7 19-290 limits assumed) above

B1: Nanobody No. 2 (VHH)
VHH: QVQLQESGGGSVQAGGSLRLSCAASGYTYSSDGMGWFRQTPGKEREGVAAISPTGRRTEYADSVKGRFTISRDNNKNMLSLQMNSLKPEDTGMYYCAREGSWSFSLANSAVRSWGQGTQVTVSS
notes: Expressed in E. coli WK6 and purified on a nickel column; not shown: HA and His tags (implied by anti-HA detection and nickel column)
[1]
  PD-1/PD-L1 Inhibitory effect: 19.3%
[2]
  positive rate, HCC827: 92.8%
[3]
  positive rate, A549: 32.6%
[4]
  Kd: 1.62 nM

B2: Nanobody No. 1 (VHH)
VHH: QVQLQESGGGSVQTGGSLRLSCAASTSIYSNNYMAWFSQAPGKGREGVAAVYIDDGRPYYADSVKGRFTISLDSAKNTVYLQMNRLKPEDTAMYYCAAAPGPLSHNYWYTSANYDYWGQGTQVTVSS
notes: as for B1
[1]
  PD-1/PD-L1 Inhibitory effect: 19.3%
[2]
  positive rate, HCC827: 88.1%
[3]
  positive rate, A549: 11.5%
[4]
  Kd: 7.96 nM

B3: Nanobody No. 3 (VHH)
VHH: QVQLQESGGGSVQTGGSLRLSCTASTSIYSNNYMAWFSQSPGKGREGVAAVYMDDGRPYYADSVKGRFTISLDSAKNTMYLQMNSLKPEDTAMYYCAAAPGPLSRNYWYTSANYDYWGQGTQVTVSS
notes: as for B1
[1]
  PD-1/PD-L1 Inhibitory effect: 19.2%
[2]
  positive rate, HCC827: 66.5%
[3]
  positive rate, A549: 13.5%
[4]
  Kd: 4.46 nM

Reference: patent US20200276330A1 (NANOMAB TECHNOLOGY, published 2020)
